B1: EDDS(Oetyr)… (peptide)
peptide: Ac-EDDS[Tyr(Et)]VWWGGADTD-NH2
SMILES: CCOc1ccc(C[C@H](NC(=O)[C@H](CO)NC(=O)[C@H](CC(=O)O)NC(=O)[C@H](CC(=O)O)NC(=O)[C@H](CCC(=O)O)NC(C)=O)C(=O)N[C@H](C(=O)N[C@@H](Cc2c[nH]c3ccccc23)C(=O)N[C@@H](Cc2c[nH]c3ccccc23)C(=O)NCC(=O)NCC(=O)N[C@@H](C)C(=O)N[C@@H](CC(=O)O)C(=O)N[C@H](C(=O)N[C@@H](CC(=O)O)C(N)=O)[C@@H](C)O)C(C)C)cc1
B2: EDDSDVWW(2Nala)GADTD (peptide)
peptide: Ac-EDDSDVWW[2Nal]GADTD-NH2
SMILES: CC(=O)N[C@@H](CCC(=O)O)C(=O)N[C@@H](CC(=O)O)C(=O)N[C@@H](CC(=O)O)C(=O)N[C@@H](CO)C(=O)N[C@@H](CC(=O)O)C(=O)N[C@H](C(=O)N[C@@H](Cc1c[nH]c2ccccc12)C(=O)N[C@@H](Cc1c[nH]c2ccccc12)C(=O)N[C@@H](Cc1ccc2ccccc2c1)C(=O)NCC(=O)N[C@@H](C)C(=O)N[C@@H](CC(=O)O)C(=O)N[C@H](C(=O)N[C@@H](CC(=O)O)C(N)=O)[C@@H](C)O)C(C)C
B3: EDDSDVWW(Oetyr)GADTD (peptide)
peptide: Ac-EDDSDVWW[Tyr(Et)]GADTD-NH2
SMILES: CCOc1ccc(C[C@H](NC(=O)[C@H](Cc2c[nH]c3ccccc23)NC(=O)[C@H](Cc2c[nH]c3ccccc23)NC(=O)[C@@H](NC(=O)[C@H](CC(=O)O)NC(=O)[C@H](CO)NC(=O)[C@H](CC(=O)O)NC(=O)[C@H](CC(=O)O)NC(=O)[C@H](CCC(=O)O)NC(C)=O)C(C)C)C(=O)NCC(=O)N[C@@H](C)C(=O)N[C@@H](CC(=O)O)C(=O)N[C@H](C(=O)N[C@@H](CC(=O)O)C(N)=O)[C@@H](C)O)cc1
B4: EDDS(Obtyr)… (peptide)
peptide: Ac-EDDS[Tyr(Bzl)]VWWGGADTD-NH2
SMILES: CC(=O)N[C@@H](CCC(=O)O)C(=O)N[C@@H](CC(=O)O)C(=O)N[C@@H](CC(=O)O)C(=O)N[C@@H](CO)C(=O)N[C@@H](Cc1ccc(OCc2ccccc2)cc1)C(=O)N[C@H](C(=O)N[C@@H](Cc1c[nH]c2ccccc12)C(=O)N[C@@H](Cc1c[nH]c2ccccc12)C(=O)NCC(=O)NCC(=O)N[C@@H](C)C(=O)N[C@@H](CC(=O)O)C(=O)N[C@H](C(=O)N[C@@H](CC(=O)O)C(N)=O)[C@@H](C)O)C(C)C
B5: EDDSDVWW(1Nala)GADTD (peptide)
peptide: Ac-EDDSDVWW[1Nal]GADTD-NH2
SMILES: CC(=O)N[C@@H](CCC(=O)O)C(=O)N[C@@H](CC(=O)O)C(=O)N[C@@H](CC(=O)O)C(=O)N[C@@H](CO)C(=O)N[C@@H](CC(=O)O)C(=O)N[C@H](C(=O)N[C@@H](Cc1c[nH]c2ccccc12)C(=O)N[C@@H](Cc1c[nH]c2ccccc12)C(=O)N[C@@H](Cc1cccc2ccccc12)C(=O)NCC(=O)N[C@@H](C)C(=O)N[C@@H](CC(=O)O)C(=O)N[C@H](C(=O)N[C@@H](CC(=O)O)C(N)=O)[C@@H](C)O)C(C)C
B6: EDDSDVWW(Obtyr)GADTD (peptide)
peptide: Ac-EDDSDVWW[Tyr(Bzl)]GADTD-NH2
SMILES: CC(=O)N[C@@H](CCC(=O)O)C(=O)N[C@@H](CC(=O)O)C(=O)N[C@@H](CC(=O)O)C(=O)N[C@@H](CO)C(=O)N[C@@H](CC(=O)O)C(=O)N[C@H](C(=O)N[C@@H](Cc1c[nH]c2ccccc12)C(=O)N[C@@H](Cc1c[nH]c2ccccc12)C(=O)N[C@@H](Cc1ccc(OCc2ccccc2)cc1)C(=O)NCC(=O)N[C@@H](C)C(=O)N[C@@H](CC(=O)O)C(=O)N[C@H](C(=O)N[C@@H](CC(=O)O)C(N)=O)[C@@H](C)O)C(C)C
B7: EDDS(2Nala)… (peptide)
peptide: Ac-EDDS[2Nal]VWWGGADTD-NH2
SMILES: CC(=O)N[C@@H](CCC(=O)O)C(=O)N[C@@H](CC(=O)O)C(=O)N[C@@H](CC(=O)O)C(=O)N[C@@H](CO)C(=O)N[C@@H](Cc1ccc2ccccc2c1)C(=O)N[C@H](C(=O)N[C@@H](Cc1c[nH]c2ccccc12)C(=O)N[C@@H](Cc1c[nH]c2ccccc12)C(=O)NCC(=O)NCC(=O)N[C@@H](C)C(=O)N[C@@H](CC(=O)O)C(=O)N[C@H](C(=O)N[C@@H](CC(=O)O)C(N)=O)[C@@H](C)O)C(C)C
B8: peptide 20 (peptide)
peptide: EDDDAIDWYDSDDD
modifications: N-terminal acetyl; C-terminal amide; 2Nala (3-(2-naphthyl)-L-alanine) at position 5
B9: EDDSDVW(Obtyr)GGADTD (peptide)
peptide: Ac-EDDSDVW[Tyr(Bzl)]GGADTD-NH2
SMILES: CC(=O)N[C@@H](CCC(=O)O)C(=O)N[C@@H](CC(=O)O)C(=O)N[C@@H](CC(=O)O)C(=O)N[C@@H](CO)C(=O)N[C@@H](CC(=O)O)C(=O)N[C@H](C(=O)N[C@@H](Cc1c[nH]c2ccccc12)C(=O)N[C@@H](Cc1ccc(OCc2ccccc2)cc1)C(=O)NCC(=O)NCC(=O)N[C@@H](C)C(=O)N[C@@H](CC(=O)O)C(=O)N[C@H](C(=O)N[C@@H](CC(=O)O)C(N)=O)[C@@H](C)O)C(C)C
B10: peptide 35 (peptide)
peptide: Ac-EDDD[Obtyr]IDWGPTSDDD-NH2
SMILES: CC[C@H](C)[C@H](NC(=O)[C@H](Cc1ccc(OCc2ccccc2)cc1)NC(=O)[C@H](CC(=O)O)NC(=O)[C@H](CC(=O)O)NC(=O)[C@H](CC(=O)O)NC(=O)[C@H](CCC(=O)O)NC(C)=O)C(=O)N[C@@H](CC(=O)O)C(=O)N[C@@H](Cc1c[nH]c2ccccc12)C(=O)NCC(=O)N1CCC[C@H]1C(=O)N[C@H](C(=O)N[C@@H](CO)C(=O)N[C@@H](CC(=O)O)C(=O)N[C@@H](CC(=O)O)C(=O)N[C@@H](CC(=O)O)C(N)=O)[C@@H](C)O
B11: peptide 21 (peptide)
peptide: Ac-EDDD[2Nal]IDWGPTSDDD-NH2
SMILES: CC[C@H](C)[C@H](NC(=O)[C@H](Cc1ccc2ccccc2c1)NC(=O)[C@H](CC(=O)O)NC(=O)[C@H](CC(=O)O)NC(=O)[C@H](CC(=O)O)NC(=O)[C@H](CCC(=O)O)NC(C)=O)C(=O)N[C@@H](CC(=O)O)C(=O)N[C@@H](Cc1c[nH]c2ccccc12)C(=O)NCC(=O)N1CCC[C@H]1C(=O)N[C@H](C(=O)N[C@@H](CO)C(=O)N[C@@H](CC(=O)O)C(=O)N[C@@H](CC(=O)O)C(=O)N[C@@H](CC(=O)O)C(N)=O)[C@@H](C)O
B12: Scr-20 (peptide)
peptide: Ac-[2Nal]EDSDDYDDIDDDW-NH2
SMILES: CC[C@H](C)[C@H](NC(=O)[C@H](CC(=O)O)NC(=O)[C@H](CC(=O)O)NC(=O)[C@H](Cc1ccc(O)cc1)NC(=O)[C@H](CC(=O)O)NC(=O)[C@H](CC(=O)O)NC(=O)[C@H](CO)NC(=O)[C@H](CC(=O)O)NC(=O)[C@H](CCC(=O)O)NC(=O)[C@H](Cc1ccc2ccccc2c1)NC(C)=O)C(=O)N[C@@H](CC(=O)O)C(=O)N[C@@H](CC(=O)O)C(=O)N[C@@H](CC(=O)O)C(=O)N[C@@H](Cc1c[nH]c2ccccc12)C(N)=O
B13: peptide 33 (peptide)
peptide: Ac-EDDD[Obtyr]IDWYDSDDD-NH2
SMILES: CC[C@H](C)[C@H](NC(=O)[C@H](Cc1ccc(OCc2ccccc2)cc1)NC(=O)[C@H](CC(=O)O)NC(=O)[C@H](CC(=O)O)NC(=O)[C@H](CC(=O)O)NC(=O)[C@H](CCC(=O)O)NC(C)=O)C(=O)N[C@@H](CC(=O)O)C(=O)N[C@@H](Cc1c[nH]c2ccccc12)C(=O)N[C@@H](Cc1ccc(O)cc1)C(=O)N[C@@H](CC(=O)O)C(=O)N[C@@H](CO)C(=O)N[C@@H](CC(=O)O)C(=O)N[C@@H](CC(=O)O)C(=O)N[C@@H](CC(=O)O)C(N)=O
B14: peptide 34 (peptide)
peptide: Ac-EDDD[Oetyr]IDWGPTSDDD-NH2
SMILES: CCOc1ccc(C[C@H](NC(=O)[C@H](CC(=O)O)NC(=O)[C@H](CC(=O)O)NC(=O)[C@H](CC(=O)O)NC(=O)[C@H](CCC(=O)O)NC(C)=O)C(=O)N[C@H](C(=O)N[C@@H](CC(=O)O)C(=O)N[C@@H](Cc2c[nH]c3ccccc23)C(=O)NCC(=O)N2CCC[C@H]2C(=O)N[C@H](C(=O)N[C@@H](CO)C(=O)N[C@@H](CC(=O)O)C(=O)N[C@@H](CC(=O)O)C(=O)N[C@@H](CC(=O)O)C(N)=O)[C@@H](C)O)[C@@H](C)CC)cc1
B15: ETEFI(Cya)WGPTGDED (peptide)
peptide: Ac-ETEFI[Cya]WGPTGDED-NH2
SMILES: CC[C@H](C)[C@H](NC(=O)[C@H](Cc1ccccc1)NC(=O)[C@H](CCC(=O)O)NC(=O)[C@@H](NC(=O)[C@H](CCC(=O)O)NC(C)=O)[C@@H](C)O)C(=O)N[C@@H](CS(=O)(=O)O)C(=O)N[C@@H](Cc1c[nH]c2ccccc12)C(=O)NCC(=O)N1CCC[C@H]1C(=O)N[C@H](C(=O)NCC(=O)N[C@@H](CC(=O)O)C(=O)N[C@@H](CCC(=O)O)C(=O)N[C@@H](CC(=O)O)C(N)=O)[C@@H](C)O
B16: peptide 32 (peptide)
peptide: Ac-EDDD[Oetyr]IDWYDSDDD-NH2
SMILES: CCOc1ccc(C[C@H](NC(=O)[C@H](CC(=O)O)NC(=O)[C@H](CC(=O)O)NC(=O)[C@H](CC(=O)O)NC(=O)[C@H](CCC(=O)O)NC(C)=O)C(=O)N[C@H](C(=O)N[C@@H](CC(=O)O)C(=O)N[C@@H](Cc2c[nH]c3ccccc23)C(=O)N[C@@H](Cc2ccc(O)cc2)C(=O)N[C@@H](CC(=O)O)C(=O)N[C@@H](CO)C(=O)N[C@@H](CC(=O)O)C(=O)N[C@@H](CC(=O)O)C(=O)N[C@@H](CC(=O)O)C(N)=O)[C@@H](C)CC)cc1

Starred links: 1 amine or outer side, 2 acyl side, 3 side chain; linkers in the order of their positions; H or OH if unused. Non-standard residues stand in square brackets, D forms with d. Tyr(Bzl) = Obtyr, O-benzyl-L-tyrosine, O=C([C@H](Cc1ccc(OCc2ccccc2)cc1)N[*:1])[*:2]; Tyr(Et) = Oetyr, O-ethyl-L-tyrosine, CCOc1ccc(C[C@H](N[*:1])C(=O)[*:2])cc1; Obtyr = O-benzyl-L-tyrosine, O=C([C@H](Cc1ccc(OCc2ccccc2)cc1)N[*:1])[*:2]; Oetyr = O-ethyl-L-tyrosine, CCOc1ccc(C[C@H](N[*:1])C(=O)[*:2])cc1; 1Nal = N[C@@H](Cc1cccc2ccccc12)C(=O)O; 2Nal = N[C@@H](Cc1ccc2ccccc2c1)C(=O)O; Cya = N[C@@H](CS(=O)(=O)O)C(=O)O

Sequence of Sushi domains (SD1/2) protein of the GABAB1a (GB1a) subunit, recombinant (Q9Z0U4 29-158): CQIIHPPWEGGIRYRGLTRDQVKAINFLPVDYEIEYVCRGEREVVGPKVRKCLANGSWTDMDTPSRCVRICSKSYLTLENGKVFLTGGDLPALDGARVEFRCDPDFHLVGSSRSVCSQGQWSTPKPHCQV

One assay addresses Sushi domains (SD1/2) protein of the GABAB1a (GB1a) subunit, recombinant. Nature of the assay: FP competition.
With B1, the Ki (commonly the equilibrium dissociation constant of an inhibitor or competing ligand from its target) came to 46.3 nM and the fold increased affinity compared to Asp207Trp is 2 fold.
Consider B2, for which the Ki turned out to be 100 nM.
On to B3, for which the Ki came out at 100 nM.
For B4, the Ki was 27.1 nM and the fold increased affinity compared to Asp207Trp amounted to 4 fold.
Consider B5, for which the Ki came out at 100 nM.
The same measure, in the same setting: then B6, with 100 nM.
As to B7, the fold increased affinity compared to Asp207Trp stood at 2 fold.

A further assay deals with Sushi domains (SD1/2) protein of GABAB1a (GB1a). Nature of the assay: FP competition vs TAMRA AJAP-1probe.
Sequence of Sushi domains (SD1/2) protein of GABAB1a (GB1a) (Q9Z0U4 29-158): as above
With B1, the Ki was found to be 46 nM.
Same read-out and setting: then B8, with 1.5 nM; and B9, with 3860 nM; and B2, with 75 nM.
B10: the Ki is 9.5 nM.
B11 registered a Ki of 5.3 nM.
On the same count and under the same terms, then B12, with 31200 nM.
Molecule B13 registered a Ki of 9.3 nM.
Still for that read-out and setting: then B14, with 6.5 nM.
B15 came in with a Ki of 12 nM.
B3 had a Ki of 113 nM.
On the same count and under the same terms, the value for B16 was 5.3 nM; that for B4 was 28 nM.
Same read-out and setting: the value for B5 was 114 nM; that for B6 was 88 nM; that for B7 was 43 nM.

These data come from patent US20260193293A1, “PEPTIDES CAPABLE OF INHIBITING PROTEIN-PROTEIN INTERACTIONS AT GABAB1A SUBUNIT AND USES THEREOF” (UNIVERSITY OF COPENHAGEN, priority 2022, published 2026).
